Experimental data as given in patent US20120178139A1.

Target: mouse glycophorin-A on mouse erythrocytes (mouse) (UniProt P14220)
Assay: in vivo, flow cytometry of circulating erythrocytes after intravenous administration

cell-surface half-life: 2.2 h
Substance: 8-arm PEG-ERY1 (8-arm PEG-ERY1-ALEXAFLUOR647)
